One series relates to APC protein. Description: Precipitation of APC from human colon cancer cell line lysates with biotinylated probe and streptavidin particles. Particulars: Western blot with APC antibody. Type of series: binding. The procedure: Precipitation experiments were carried out in order to determine whether the anti-APCp1 polypeptide probe was capable of detecting the low in vivo levels of APC which are typically present in normal and tumor cells. FIG. 7 is a schematic representation of the strategy used. Briefly, cell lines which produce a normal (i.e., full length human APC) and mutant (i.e., truncated human APC) were lysed, and the lysate combined with either biotinylated […] or biotinylated anti-APC monoclonal antibody. Molecules bound to the biotinylated probes were collected by binding to streptavidin, and the bound molecules released from the beads followed by SDS-PAGE, blotting of the gels, and detection with a biotinylated APC antibody. […] was detected on X-ray film. These steps are elaborated in more detail as follows.
Cells were harvested at 90-100% confluency. Cells were washed twice with ice-cold Dulbecco's phosphate buffered saline (Gibco BRL) containing magnesium chloride and calcium chloride, scraped into 15 mL ice cold D-PBS and pelleted in a Beckman J-6 centrifuge for 5 minutes at 4° C. The cell pellet was resuspended in 1 mL ice-cold phosphate buffer, pH 8, containing 0.2% NP-40, 400 μg/mL of Pefabloc SC (Boehringer Mannheim) and 10 μg/mL each of leupeptin, pepstatin, and aprotinin. […]
A general note: Immunoblotting shows a protein as a band on a membrane.

For series [1], the target named is T1, APC-55, a peptide corresponding to amino acids 2-55 of human APC (human).
T1 peptide: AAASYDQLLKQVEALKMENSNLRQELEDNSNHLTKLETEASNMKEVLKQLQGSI
Kind of series: thermal denaturation by CD at 222 nm, equimolar mixture, 20.0 µM. As for the experimental part: (§1) CD spectra (180–300 nm) for the APC-55 and anti-APCp1 peptides alone and in combination were recorded in a 1 mm quartz cuvette at 5° C. using an Aviv 62DS circular dichroism spectrophotometer. The concentrations of peptide stocks were determined optically by the method of Gill and vonHippel, *Anal. Biochem* 182:319–326 (1989). Peptide stocks were diluted in 10 mM KPO_4, 100 mM KF, pH 7.0. Thermal denaturations were carried out in steps of 1–3° C. with 2 minutes for equilibration and one minute for data averaging. Thermal transitions were >95% reversible. The results in FIGS. 3 and 4 obtained with the APC-55 alone are shown by open circles (○), with the anti-APCp1 alone by squares (□), and with an equimolar mixture of APC-55 and anti-APCp1 with closed circles (●).

The target in series [2] is T1, APC-55, a peptide corresponding to …. Kind of series: thermal denaturation by CD at 222 nm, equimolar mixture, 75.0 µM. The procedure:
as §1

Series [3] can be described thus: thermal stability at 20 µM peptide in PBS (pH 7.0), peptide alone.
Series [4] in a line: thermal denaturation by CD at 222 nm, peptide alone (homo-oligomer), 20.0 µM.
The target in series [5] is T1, APC-55, a peptide corresponding to …. Description: thermal denaturation by CD at 222 nm, equimolar mixture, 8.0 µM. The procedure:
as §1

The target is the same in series [6]. Kind of series: thermal stability at 20 µM peptide in PBS (pH 7.0), mixture.
Series [7] shares this target. Description: thermal denaturation followed by circular dichroism at 222 nm. The procedure: as §1
Series [8] is described as follows: thermal denaturation by CD at 222 nm, peptide alone (homo-oligomer), 75.0 µM.
Series [9] deals with T1, APC-55, a peptide corresponding to …. Kind of series: native acrylamide gel electrophoresis, judged by the sensitivity of detection. The procedure: Native acrylamide gel electrophoresis was used as a direct test of heterodimer specificity. Samples of the individual peptides and an equimolar mixture of the peptides were prepared at 0.6 mM and diluted two-fold in 0.2% (w/v) methyl green, 20% glycerol, 750 mM beta-alanine acetate pH 6.0. Gels contained a separating gel of 7.5% acrylamide in 375 mM beta-alanine acetate, pH 4.0. Samples were run for 2.5 hours at 100 volts, and the gels were fixed with 2% glutaraldehyde and stained for at least 1 hour in 0.2% Coomassie Brilliant Blue in 50% methanol, 10% acetic acid (v/v). Destaining was carried out overnight in the same solvent lacking the dye.
The data presented herein was surprising in view of the prior art reports of the sufficiency of e':g interactions for dimerization specificity of coiled coil proteins [O'Shea et al. (1992), supra; O'Shea et al. (1993) supra; Krylov et al (1994) EMBO J. 13:2849–2861].

Series [10] in a line: thermal denaturation by CD at 222 nm, peptide alone (homo-oligomer), 8.0 µM.

Where no end group is shown, it is not given here.

Turning to “biotinylated-anti-APCp1: N-terminally biotinylated anti-APCp1 with Met, an additional Leu8Val mutation and Glu-Asp-Glu at the C-terminus (MAAKGDQVKKEVEALEYENSNLRKKLEDHKKKLTKLKTEISNAKKMLKQLYASIEDE; not fully specified (N-terminus); also: biotin attached via a long spacer arm)”, in the series on APC protein, the “binding to / precipitation of wild-type and mutant APC at endogenous cell concentrations” value is “precipitated truncation mutants and full-length APC at endogenous cell concentrations”.

B1: anti-APCp1 polypeptide probe (designed binder)
peptide: MAAKGDQLKKEVEALEYENSNLRKKLEDHKKKLTKLKTEISNAKKMLKQLYASI
On to B1, for which the “Apparent Tm” value in [1] stood at 54.3 ° C; in series [2], 64.7 ° C; in [4], 52.3 ° C; in series [5], 50.6 ° C; in [8], 59.6 ° C; in [10], 45 ° C. Moreover, the Tm in series [3] was 52.3 ° C; in series [6], 54.3 ° C. The “increase in the thermal melting transition” value in [7] is more than 10 ° C. Besides, the “preference for heterodimer over homodimers (fold)” value in series [9] was not below 100 fold.

The record behind these values is patent US6303317A, “Peptide probes and methods for making the same” (The Regents of the University of California, priority 1998, dated 2001).
